From article PMC8457056, “Remodeling of the Fibrillation Pathway of α‐Synuclein by Interaction with Antimicrobial Peptide LL‐III” (Chemistry (Weinheim an Der Bergstrasse, Germany), 2021)
Where no end group is shown, it is not given here. carboxyfluorescein = carboxyfluorescein at the N-terminus

Biological target: α‐Synuclein (human, UniProt P37840 1-140)
Assay: fluorescence polarisation
Conditions: both partners purified

Binder | Ka
carboxyfluorescein-VNWKKILGKIIKVVK [carboxyfluorescein‐labeled LL‐III] | 19000 M⁻¹
H-VNWKKILGKIIKVVK-NH2 [antimicrobial peptide LL‐III] | 37000 M⁻¹
